One block for each binder: values may come before it.
Assays:
Conditions in all cases: one partner purified
[1] = target: T1, endogenous Syt1 on the surface of live hippocampal neurons (uPAINT) (Rattus norvegicus (assumed), UniProt P21707); assay: single-molecule imaging on live neurons (uPAINT); live hippocampal neurons (21-22 DIV) in high-K+ buffer with 1 nM labelled nanobody complex, HILO, 50 Hz for 320 s, 37 °C
T1 construct: Synaptotagmin 1 (Syt1), endogenous; also called surface-exposed Syt1; source: endogenous, live hippocampal neurons (21-22 DIV)

[2] = target: T2, endogenous Synaptotagmin 1 of wild-type mouse neurons / brain (Mus musculus, UniProt P46096); assay: co-IP; GFP-tagged nanobody preloaded on GFP Selector beads; lysate of WT or Syt1 KO mouse brain, 1 h at 4 °C; blot with a Syt1 cytoplasmic antibody
T2 construct: Synaptotagmin 1 (Syt1), mouse, endogenous; On live neurons in the uptake experiment; in a detergent lysate in the immunoprecipitation; also called endogenous Syt1; Syt1; source: endogenous, WT mouse brain lysate (methods; the legend says mouse primary neurons); endogenous, on live WT mouse primary neurons

[3] = target: T3, endogenous Synaptotagmin 1 of primary hippocampal neurons (proximity labelling and PLA) (rat (endogenous in primary hippocampal …, UniProt P21707)); assay: proximity labelling; NbLumSyt1-APEX2 taken up by live primary neurons (30 min, with biotin-phenol), 1 mM H2O2 for 30 s; streptavidin beads, LC-MS/MS; controls: no nanobody, NbALFA-APEX2
T3 construct: Synaptotagmin 1 (Syt1), endogenous; spectra searched against the Rattus norvegicus proteome (UP000234681); neurons 'in most cases' from Wistar rat pups; also called Syt1; Syt1-lum; source: endogenous, live primary hippocampal neurons

[4] = target: T4, endogenous human Syt1 of human iPSC-derived neurons (Homo sapiens, UniProt P21579); assay: immunostaining of cells or tissue; live staining of 80-day-old human iPSC-derived hypothalamic neurons with 5.5 µM pHluorin-labeled nanobody, 20 min at 37 °C, with 30 mM KCl or 1 µM TTX, after blocking the surface pool with unlabeled nanobody; fixed and stained with anti-GFP, anti-Syt1, anti-TUBB3
T4 construct: Synaptotagmin 1 (Syt1), human, endogenous; also called endogenous Syt1; source: endogenous, live human iPSC-derived hypothalamic-like neurons
T4 sequence (P21579 whole entry): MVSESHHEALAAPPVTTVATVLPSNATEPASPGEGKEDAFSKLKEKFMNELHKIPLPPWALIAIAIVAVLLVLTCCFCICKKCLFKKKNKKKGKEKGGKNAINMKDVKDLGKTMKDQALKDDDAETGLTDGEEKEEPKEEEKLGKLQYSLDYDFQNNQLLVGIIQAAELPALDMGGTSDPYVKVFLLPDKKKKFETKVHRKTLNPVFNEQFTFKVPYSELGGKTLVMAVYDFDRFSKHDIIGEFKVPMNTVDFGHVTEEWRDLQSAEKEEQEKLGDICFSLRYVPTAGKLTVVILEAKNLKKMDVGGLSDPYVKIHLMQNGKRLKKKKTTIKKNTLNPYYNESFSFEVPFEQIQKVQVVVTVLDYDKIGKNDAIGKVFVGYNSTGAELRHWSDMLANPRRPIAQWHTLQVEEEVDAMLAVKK

T1 sequence (P21707 whole entry): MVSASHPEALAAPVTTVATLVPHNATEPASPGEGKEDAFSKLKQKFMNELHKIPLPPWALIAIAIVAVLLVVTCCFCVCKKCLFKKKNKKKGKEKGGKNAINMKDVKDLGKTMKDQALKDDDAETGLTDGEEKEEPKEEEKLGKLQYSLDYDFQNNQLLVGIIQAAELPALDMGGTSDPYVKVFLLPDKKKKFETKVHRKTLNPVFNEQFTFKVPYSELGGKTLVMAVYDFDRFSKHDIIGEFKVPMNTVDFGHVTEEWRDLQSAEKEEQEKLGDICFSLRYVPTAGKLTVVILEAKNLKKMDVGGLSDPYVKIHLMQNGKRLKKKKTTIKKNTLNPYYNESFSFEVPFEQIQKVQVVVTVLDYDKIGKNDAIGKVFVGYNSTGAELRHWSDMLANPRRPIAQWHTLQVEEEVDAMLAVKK
T2 sequence (P46096 whole entry): as the sequence (P21707 whole entry) above, with H6R counted along it
T3 sequence (P21707 whole entry): as the sequence (P21707 whole entry) above

binding result [1]: binds
B1: NbLumSyt1-HALO bound to the Halo-ligand JF549 (VHH)
VHH: EVQLVESGGGLVQTGGSLRLSCTASGSIGSISVMGWYRQVPGTQYELVAGISRGGSTWYEDSVKGRFTISRDNAKNTLYLQMNSLKPEDTGMYYCAGGDYSDRLGSWGQGTQVTVSS
notes: alpaca nanobody clone 1F12; as the nanobody of m1 (PDB 8B8I chain A); also called NbLumSyt1-HALO/JF549; NbLumSyt1-Halo/JF549; source: produced and purified via NanoTag Biotechnologies

binding result [2]: binds
B2: NbLumSyt1 fused to a GFP tag (VHH)
VHH: EVQLVESGGGLVQTGGSLRLSCTASGSIGSISVMGWYRQVPGTQYELVAGISRGGSTWYEDSVKGRFTISRDNAKNTLYLQMNSLKPEDTGMYYCAGGDYSDRLGSWGQGTQVTVSS
notes: alpaca nanobody clone 1F12; as the nanobody of m1 (PDB 8B8I chain A); Held on GFP Selector beads in the IP; detected with anti-GFP after uptake in neurons; also called GFP-tagged nanobody

binding result [3]: binds
B3: NbLumSyt1-APEX2 (VHH)
VHH: EVQLVESGGGLVQTGGSLRLSCTASGSIGSISVMGWYRQVPGTQYELVAGISRGGSTWYEDSVKGRFTISRDNAKNTLYLQMNSLKPEDTGMYYCAGGDYSDRLGSWGQGTQVTVSS
notes: alpaca nanobody clone 1F12; as the nanobody of m1 (PDB 8B8I chain A); also called Nb-APEX2

binding result [4]: binds | binding result [1]: binds
B4: NbLumSyt1-pHluorin (VHH)
VHH: EVQLVESGGGLVQTGGSLRLSCTASGSIGSISVMGWYRQVPGTQYELVAGISRGGSTWYEDSVKGRFTISRDNAKNTLYLQMNSLKPEDTGMYYCAGGDYSDRLGSWGQGTQVTVSS
notes: alpaca nanobody clone 1F12; as the nanobody of m1 (PDB 8B8I chain A); In uPAINT it was precomplexed with an anti-GFP nanobody carrying Atto647N (a label); A version with a TEV site in the linker also exists; also called NbSyt1-pH; pHluorin-labeled Syt1 nanobody

— publication PMC13185310, “A versatile nanobody platform for live and super-resolution imaging of synaptic vesicle dynamics and plasticity in rodent and human neurons” (Journal of Nanobiotechnology, 2026)
